Assay results from the DeepSol protein solubility set.

assay: soluble on expression in E. coli; label from the status in PepcDB or PDB records

Soluble on expression in E. coli, soluble:
MEQTLRVSVFGATGYTGIELLRSLLTHPHFEVKNLISQSYKGKKVREVLPFFSNTYISEIEFLEEPVEDYELAFLCLPHEVSYEIVPKLLSQGKKVVDLSGAYRIKSPKAYEEFYGFKHEREDILQRAVYGLPEVFREEIKNSDLVANPGCYPTATLLAIYPFLKERVGIESVIVHALSGVSGAGRKPKQQFHFPEMTENFFNYAVEKHRHTPEMEDVIRRVYGREVKVRFTPTVVPTSRGMISTVYLKSEKLNVKELFKEVYEDEIFVKVVDEPPQTKWVLGTNYCFIYPHYDERTGYYVIISAIDNLGKGASLQAVQNANLMFGLAEDDGLLQLPVFP
MAAMRKALPRRLVGLASLRAVSTSSMGTLPKRVKIVEVGPRDGLQNEKNIVSTPVKIKLIDMLSEAGLSVIETTSFVSPKWVPQMGDHTEVLKGIQKFPGINYPVLTPNLKGFEAAVAAGAKEVVIFGAASELFTKKNINCSIEESFQRFDAILKAAQSANISVRGYVSCALGCPYEGKISPAKVAEVTKKFYSMGCYEISLGDTIGVGTPGIMKDMLSAVMQEVPLAALAVHCHDTYGQALTNTLMALQMGVSVVDSSVAGLGGCPYAQGASGNLATEDLVYMLEGLGIHTGVNLQKLLEAGNFICQALNRKTSSKVAQATCKL
MQKQAELYRGKAKTVYSTENPDLLVLEFRNDTSAGDGARIEQFDRKGMVNNKFNYFIMSKLAEAGIPTQMERLLSDTECLVKKLDMVPVECVVRNRAAGSLVKRLGIEEGIELNPPLFDLFLKNDAMHDPMVNESYCETFGWVSKENLARMKELTYKANDVLKKLFDDAGLILVDFKLEFGLYKGEVVLGDEFSPDGSRLWDKETLEKMDKDRFRQSLGGLIEAYEAVARRLGVQLD
MANELTWHDVLAEEKQQPYFLNTLQTVASERQSGVTIYPPQKDVFNAFRFTELGDVKVVILGQDPYHGPGQAHGLAFSVRPGIAIPPSLLNMYKELENTIPGFTRPNHGYLESWARQGVLLLNTVLTVRAGQAHSHASLGWETFTDKVISLINQHREGVVFLLWGSHAQKKGAIIDKQRHHVLKAPQPSPLSAHRGFFGCNHFVLANQWLEQHGETPIDWMPVLPAESE
MSSLADLINLDLSDSTDQIIAEYIWIGGSGLDMRSKARTLPGPVTDPSQLPKWNYDGSSTGQAPGDDSEVIIYPQAIFKDPFRRGNNILVMCDAYTPAGEPIPTNKRHAAAKIFEDPSVVAEETWYGIEQEYTLLQKDIKWPVGWPVGGFPGPQGPYYCGVGADKAFGRDIVDSHYKACLYAGINVSGTNGEVMPGQWEFQVGPTVGIAAADQVWVARYILERITELAGVVLSLDPKPIPGDWNGAGAHTNYSTKSMREDGGYEVIKKAIEKLGLRHKEHIAAYGEGNERRLTGKHETADINTFLWGVANRGASIRVGRDTEQAGKGYFEDRRPASNMDPYTVTSMIAESTILWKP
MSLKSTVLLIDDDQDVLDSYLHLMSIAGLTAKAVIDPTQAMSHIQPDWNGVVLLDMYMPQLHGMELLKQIKAVDDKIPVIVITGHGDIPMAVEAVKMGACDFLEKPINPPQLLTLIKQHLELRRSFIEQKLLLSRSVKRELVGKSAQMEQIRSHVAQYALLNRHVVIVGESGCGRHTIAYLIHQLTTNNGHLPWVELVASAKTEWSTVEPKVQESAGGTLLIDHIELLSEEVQRNVVQSLLNQERLNRPRTRVIAVIDQPPEQLIAQNQLLPELYYLLNQGQIDVPLLRQRPDDIAALFHYFLKQSCYKLGKPMPNVEPHYLALLRAHQWPGNVRELRNVAELYAIGIVKLAGKERLYNQEEMLSPLDELVDDYEKQVIEDALFLFSGRVADAANYLQVPRKKLYLRMKKHGLEKDAFKAREGHHHHHH
SDPAGASVASAIGGEGEKFAVGNIYSVKVITGDEFRGIVMAYDPIPNFVFFEEGTKPRPGHLKNTRMVNASFITGLSYLGKTEDPFDSDNFSVDLNGLRAKEALAIRQAEADAERMGVGVTAEAQSIFDALSKTLPVQWENSDILVMKEVRVRSPYLSDCVFGGTDAANNRVKKVLELERRRLQLFGT
MCEIFIRANQRSYSVQARSLRLHGVATSVRLEQLFWDVLEEIAARDGMRVTQLIERLYDELVQYRGEAANFTSFLRVCCLRYQVLQAEGRIPADATVPIRSLDAQAVLRGLPANLYDSRPLG
MYKIVTVKDVVRIPPRMFTMDPKEAAMLVLRDTYEGTYDRDEGVILSIVEVKEVGDGIIVPGDGATYHEVVFDVLVWEPKRDEVVEGTVVDVVPFGAFIRIGPMDGLVHISQLMDDYVVYDERNKQFVGKEKKYLLKIGDAVRARIITVSPKSRVIRENRIGLTMRQPGLGKFEWIEKEKRKEKEGKK

Soluble on expression in E. coli, not soluble:
MSEKTMGPRQSRPGILTPAQERVAQAIARLGPEISLTDISRMVGGHPNASRQHIKTLENSGYISATQKRGAAGRPAQLYSITPEGLRALAGNATLIAHTSFVRSLSHYIANQPHPEERALALGSQMVRDEGPLPGATKVDKVVNLLEKYGFAPTQAGTEIQLLTCPVLDSAVRHPEVVCTMHRGILNEITGNNTTFILEPFARPGMCVIRTVSPTANPTQT
MTSPMTSKDSKLTLAEKVWRDHVVSQGEGDQPDLIFIDLQLLHEVTSPQAFDGLRMAGRTLRHPELHLATEDHNVPTEGIHNGSLLEINDLVSRTQVETLRKNCEEFGVRLHAMGDKKQGIVHQVGPQLGATQPGMTIVCGDSHTSTHGAFGAMAFGIGTSEVEHVMATQTLSLKPFKTMAINVTGELQPGVTAKD
MGSDKIHHHHHHMVDEILKLKKEKGYIILAHNYQIPELQDIADFVGDSLQLARKAMELSEKKILFLGVDFMAELVKILNPDKKVIVPDRSATCPMANRLTPEIIREYREKFPDAPVVLYVNSTSECKTLADVICTSANAVEVVKKLDSSVVIFGPDRNLGEYVAEKTGKKVITIPENGHCPVHQFNAESIDAVRKKYPDAKVIVHPECPKPVRDKADYVGSTGQMEKIPEKDPSRIFVIGTEIGMIHKLKKKFPDREFVPLEMAVCVNMKKNTLENTLHALQTESFEVILPKEVIEKAKKPILRMFELMG
MGSDKIHHHHHHMNYEGKTKIVKVTGDYALLEFKDDITAGDGLKHDVLTGKGSICAETTAILMKYLSEKGIKTHLVEYIPPRTLKVIPLKMFPLEVVVRLKKAGSFVRRYGGAEGEDLPVPLVEFFIKDDERHDPMVCVDHLEILGIATKKQAEKMKEAAVKITLALKEFFERANFELWDIKYEFGLDKDGNVVLGDEISPDTFRLRKKGEIFDKDVYRRDLGDPLKKYREVLELCRSLNSQ
MNVTEISAGQFQEMVQAGATRLHTNAEYVNSLNVFPVPDGDTGTNMNLSMTSGAKAVADSRSEKVGELAGALSKGLLMGARGNSGVILSQLFRGFSKQIPEVTTLNAKDLAAAFTHGVETAYKAVMKPVEGTILTVSREAARSGERKAKETDDCIEVMTAVVAGAKRALAKTPDLLPVLKEVGVVDSGGQGLLFIYEGFLEALSGEFLPTETYEPSPAEMDEMVNAEHHRGVSGHVATEDIKFGYCTEIMVRIGEGPTVDSAFDYETFRNYLNELGDSLLVVNDDEIIKVHVHTEHPGEVMNYGQKFGSLVKIKVDNMRLQHETLVERDAQQEALTEKVRVPFAVIAIAAGEGVQELFRSLGASYIISGGQTMNPSTEDILKAVKEVNAEQVIILPNNKNIFMAADQAAEVADVPVAVVPSKTISQGMTAMLAFNDQQSLEENKASMTEMLDSVVSGQVTTAVRDTTIDDVEIKKDDFLGMIDGKIVVSEADRFNASLDTLNRMIDEDTEIVTIIVGEDGSVEEAEKLIAILVSENDELETELHEGGQPVYPYLFSAE
SLIENSHVKKDDIWPSGGQMTVKDLTAKYTEGGNAILENISFSISPGQRVGLLGRTGSGKSTLLSAFLRLLNTEGEIQIDGVSWDSITLEQWRKAFGVIPQKVFIFSGTFRKNLDPYEQWSDQEIWKVADEVGLRSVIEQFPGKLDFVLVDGGCVLSHGHKQLMCLARSVLSKAKILLLDEPSAHLDPVTYQIIRRTLKQAFADCTVILCEARIEAMLECDQFLVIEENKVRQYDSILRLYHYPADRFVAGFIGSPKMNFLPVKVTATAIDQVQVELPMPNRQQVWLPVESRDVQVGANMSLGIRPEHLLPSDIADVILEGEVQVVEQLGNETQIHIQIPSIRQNLVYRQNDVVLVEEGATFAIGLPPERCHLFREDGTACRRLHKEPGV
MKVDKRIEAVTKFLESLGTVEDYTEDVAVKYRNLILKSYELYENKYNDTVDDSLCIEVWSNGTYVVTNEDLSFDCESEEDLQKLKELFVNTSFYITINELNKVGHKATLSVKAKAKNLRKLGQLIKEYRSCNCKYLKDKVTEIIGDDGRVYLDRISERMD
MLSLAFGVNDIYEYEGKEYKLDLAFDNVLRVIDLTEDNSLSDVFRANLAIDVLFADDMPWPRSNEEDEYANIEEKSLVLIDIFTNYIVKENDDGLLYDIDGNKMPSATNNEDAEEIASYSLTQDADYIYASFLQDYNIDLLDSRGKMHWYKFRALLESLRDDTTIKTIIGIRQAELPSGKGTEKERNELIKLKNRYKLKD
MDNMKRNMPYLPSFKLTDFDIKTLVQPILCPRSQEIQYYETLSKISTFAQSNINNDVFFSIIDNTFIQTLALQQIRFSLEKYPHQLHSFNIKLSCLADEDFVRELLSFHGAKFALEISELDCYTESKEIRENLSVLQANNIEIWLDDYHRNNKLANMSLGNILWDRIKIDKSFLKHADQESIQALEYFLAPFCLHGLIFEGAEYIEHHKMLKTSQSLTQGYYYFRPSPINSLDSKPRVAESIKLSYAG
FLNNKHREKGLKAEEEACGFLKSLGFEMVERNFFSQFGEIDIIALKKGVLHFIEVKSGENFDPIYAITPSKLKKMIKTIRCYLSQKDPN
MGSDKIHHHHHHMILDVDYVISAANITMQFGAKPLFENISVKFGNGNRYGLIGANGCGKSTFMRILSGEQEPSAGNVSLEPNIRIGKLRQDQFAYEDYSVVDAVIMGHEELWAVKEERDRIYSSGEMSEEDGMRVADLETEFAEMDGYTAESRAGELLLGLGIPVEQHFGLMSALAPGVKIRVLLAQVLFSEPDIMLLDEPTNNLDINTIRWLEGVLAEKQSTMIIISHDRHFLNTVCTHMADIDYGELRVYPGNYDEYMFAATQAREQLMSDNAKKKEKIAELQSFVSRFSANASKAKQATSRQKQMEKIQLDEVKASSRVNPYIRFTQEKKLYRLALETENVRKSFEDEAVLKGLSTSIEVGEKVAIIGANGIGKTTLLKCLMGEYTPDSGSIKWSENAAIGYYAQDHAHWFKQDMTVYEWMYQWKKPGDDEQAIRGVLGRMLFSSDDIQKPVSILSGGEKGRMIFGKLILQRPNILVMDEPTNHLDMESIESLNLALEQFEGTLLFVSHDREFVSTLATRIIEITDKGLRDFAGSYDEYLAQLAAA
MAHHHHHHMPLPPLEEAPRSMTRRNYLVERNRLRVSAYAPTRRELEEEDIRMAQTREERRRNMLNSWKSQSMYNPDLTRPLPGGGPRSKRMKEAATLKNPNYYKIVKEEEAQLKAERTAMYRADVLQQLKDREEYLRKWREDEKAYVSSLVESNKEQARKLEEREREEARAEKEYMNRMRESNLRELEQKRMKEREREEYELSLIRTVQAREKEKAETEERRARDMKQMMRRENEEYHRSIKKKQKEDKAREEAELKAILEYNATLAERERQEQKQRRDQYKAEFEETIEKQKEFFRTHNYDEPPESIRERNEKAAAALALIKKEERLRLADRRREYRQELMQQIREKQEWQLTHIDGV
MFVDKNGVNMEKKLVKQQLLTGERALFASKDLRIEDSIFDDGESPLKESSNIELVNSSFKWKYPLWYCNNVNVKDCYFFEMGRAGVWYTNDINVEDTIIEAPKNFRRCNRLGLKNVEFVNAEETLWSCDNVTMTNVVAKGNYFAMNSNDMKIDGLKLVGNYPFDGSKNLEIRNSRLMSKDAFWNAENITVYDSYISGEYLGWNSKNLTFINCTIESLQGLCYIDNLVMKNCKLINTTLAFEYSTVDADITSRVDSVLNPTSGTITADSIDKLIIEKDKVDPSLTKIVCRN
